We go through 2 molecules from paper PMC4466255, “Direct Ionic Regulation of the Activity of Myo-Inositol Biosynthesis Enzymes in Mozambique Tilapia” (PLoS ONE, 2015).

The target of one data set is T1, MIPS-160 (Oreochromis mossambicus, UniProt Q1KN76).
T1 construct: full-length CDS from seawater-acclimated gill cDNA, pET24a, 6xHis tag kept (C-terminal in Results, amino-terminal in Methods), E. coli Rosetta 2(DE3)pLysS, 61 kDa
T1 sequence (Q1KN76 1-518): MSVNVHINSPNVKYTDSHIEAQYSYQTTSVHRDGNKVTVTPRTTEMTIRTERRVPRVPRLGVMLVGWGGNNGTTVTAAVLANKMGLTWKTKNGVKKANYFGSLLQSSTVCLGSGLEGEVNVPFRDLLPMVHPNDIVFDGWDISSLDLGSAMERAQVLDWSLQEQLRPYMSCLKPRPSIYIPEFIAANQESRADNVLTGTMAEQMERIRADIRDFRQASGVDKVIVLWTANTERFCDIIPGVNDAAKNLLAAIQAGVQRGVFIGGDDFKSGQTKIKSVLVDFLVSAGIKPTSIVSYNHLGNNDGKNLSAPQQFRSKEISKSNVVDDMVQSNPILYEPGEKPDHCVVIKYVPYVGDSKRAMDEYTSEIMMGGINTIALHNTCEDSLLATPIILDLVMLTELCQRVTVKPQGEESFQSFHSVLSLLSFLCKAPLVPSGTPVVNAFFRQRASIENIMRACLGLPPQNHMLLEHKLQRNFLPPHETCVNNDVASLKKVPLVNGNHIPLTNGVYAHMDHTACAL
Nature of the data set: activity with or without NAD+. It counts as biochemical. Particulars: G6P as substrate; 28°C.

Substrate in data set [1]: O=P(O)(O)O[C@@H]1[C@H](O)[C@H](O)[C@@H](O)[C@H](O)[C@H]1O
The experiment in a line: Pi release, BioMol Green, Michaelis-Menten fit. The format is biochemical, Oreochromis mossambicus. Particulars: 50 mM Tris-HCl pH 8.2, 50 mM NaCl, 1 mM MgCl2, 28°C, standard buffer IAB, 220 mOsm. From the text: (§1) Pi release, BioMol Green, Michaelis-Menten fit on IMPase 1

Substrate in data set [2]: O=P(O)(O)O[C@@H]1[C@@H](O)[C@H](O)[C@@H](O)[C@H](O)[C@@H]1O
The experiment in a line: Pi release, BioMol Green, Michaelis-Menten fit. As to conditions: 50 mM Tris-HCl pH 8.2, 50 mM NaCl, 1 mM MgCl2, 28°C, standard buffer IAB, 220 mOsm. The format is biochemical, Oreochromis mossambicus.
Source text: as §1

Turning to `NC(=O)c1ccc[n+]([C@@H]2O[C@H](COP(=O)(O)OP(=O)(O)OC[C@H]3O[C@@H](n4cnc5c(N)ncnc54)[C@H](O)[C@@H]3O)[C@@H](O)[C@H]2O)c1` [NAD^+], the “activity with or without NAD+” value at MIPS-160 is listed as “MIPS-160 activity depends on NAD^+ (Fig 5B)”.

B1: IMPase 1 (Oreochromis mossambicus) (protein)
chain: MEDPWQKAYDFAVAVARKAGAEIRKAGESEIRVMTKSSTVDLVTKTDERVEKIIIGSLKEEFGEGTHCFIGEESVAKGEPCILTDKPTWIIDPVDGTTNFVHGFPFVAVSIAFAVNKELEFGVVYSCLEDKMYKARKGKGAFCDNEPIAVSDVKDINRSIIIFEHGTDRSPEKVTKIFFTMQKILCIPVHGLRGSGTAGYKQCLVVIGGSEGVFDIGIHCWDIAAGADIVKEAGGILLDVDGGPFDLMSRRMVSANNETIAKRIIKEIEIFPVVRDDAPIEKK
notes: full-length CDS from seawater-acclimated gill cDNA, pET24a, 6xHis tag kept (C-terminal in Results, amino-terminal in Methods), E. coli Rosetta 2(DE3)pLysS, 32 kDa
A word on the Km: it is the substrate concentration at which the rate is half of its maximum. One may read the Vmax as the rate approached at saturating substrate. As a reminder, the kcat is the maximal rate divided by the concentration of active sites. Usually kcat/Km stands for the turnover number divided by the Michaelis constant. B1: in data set [1], the Km stood at 538 ± 74 µM, the Vmax was found to be 0.0073 ± 0.0007 nmol/s, the kcat was determined as 2.585 ± 0.112 s⁻¹ and the kcat/Km was 4800 ± 1100 M⁻¹ s⁻¹. In data set [2], the Km was determined as 930 ± 350 µM, the Vmax worked out at 0.0027 ± 0.0006 nmol/s, the kcat amounted to 0.962 ± 0.102 s⁻¹ and the kcat/Km was 1050 ± 200 M⁻¹ s⁻¹.
